Measurements taken from the supplement of paper PMC5998384.

Tests used:
HeLa Kyoto [1] = assay: solubility in G1/S (NP-40 vs SDS abundance) (log2 ratio); higher = more soluble; conditions: cell cycle stage: G1/S
HeLa Kyoto [2] = assay: melting temperature (median over replicates), in situ; higher = more thermally stable
HeLa Kyoto [3] = assay: solubility change mitosis vs G1/S (difference of NP-40 vs SDS log2 ratios) (log2 ratio difference); higher = more soluble in mitosis
HeLa Kyoto [4] = assay: thermal stability score vs G1/S (z-score of summed log2 fold changes over temperatures); higher = more thermally stable than in G1/S
[5] = cell cycle stage: early G1 (4.5 h after nocodazole release)
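For melting temperature (median over replicates), in situ in this document: HeLa Kyoto cells synchronized by double thymidine or nocodazole block, proteins quantified by TMT10plex mass spectrometry, three independent biological replicates.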
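For solubility change mitosis vs G1/S (difference of NP-40 vs SDS log2 ratios) in this document: synchronized HeLa Kyoto cells (double thymidine block for G1/S, nocodazole release for mitosis), protein amounts in NP-40 versus SDS lysates quantified by mass spectrometry, three biological replicates.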
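For solubility in G1/S (NP-40 vs SDS abundance) in this document: HeLa Kyoto cells arrested at G1/S by double thymidine block, proteins quantified by TMT10plex mass spectrometry in mild NP-40 versus SDS extracts, three biological replicates.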
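For thermal stability score vs G1/S (z-score of summed log2 fold changes over temperatures) in this document: synchronized HeLa Kyoto cells, proteins quantified by TMT10plex mass spectrometry, three biological replicates, mitosis taken 0.5 h after nocodazole release, G1/S directly after double thymidine block.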

NDRG1, sequence (chain, as listed by the source): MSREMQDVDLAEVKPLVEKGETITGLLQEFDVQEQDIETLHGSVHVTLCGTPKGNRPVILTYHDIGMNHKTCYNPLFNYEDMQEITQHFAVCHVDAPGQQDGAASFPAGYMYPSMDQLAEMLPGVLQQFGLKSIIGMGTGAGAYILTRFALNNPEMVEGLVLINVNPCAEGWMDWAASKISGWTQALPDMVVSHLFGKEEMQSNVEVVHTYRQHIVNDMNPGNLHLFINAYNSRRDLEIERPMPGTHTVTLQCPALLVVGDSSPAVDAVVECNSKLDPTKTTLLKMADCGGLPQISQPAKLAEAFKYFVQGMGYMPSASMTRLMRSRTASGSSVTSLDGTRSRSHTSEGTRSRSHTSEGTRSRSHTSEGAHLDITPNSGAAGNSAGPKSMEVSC

Q: With “MSVGFIGAGQLAYALARGFTAAGILSAHKIIASSPEMNLPTVSALRKMGVNLTRSNKETVKHSDVLFLAVKPHIIPFILDEIGADVQARHIVVSCAAGVTISSVEKKLMAFQPAPKVIRCMTNTPVVVQEGATVYATGTHALVEDGQLLEQLMSSVGFCTEVEEDLIDAVTGLSGSGPAYAFMALDALADGGVKMGLPRRLAIQLGAQALLGAAKMLLDSEQHPCQLKDNVCSPGGATIHALHFLESGGFRSLLINAVEASCIRTRELQSMADQEKISPAALKKTLLDRVKLESPTVSTLTPSSPGKLLTRSLALGGKKD [PYCR2]” as the substance, how does the “solubility in G1/S (log2)” value (HeLa Kyoto [1]) read?
A: 0.291

Q: And the melting temperature (HeLa Kyoto [2]; cell cycle stage: G1/S)?
A: 54.9 °C

Q: And the melting temperature (HeLa Kyoto [2]; cell cycle stage: mitosis)?
A: 54.5 °C

Q: And the “solubility change mitosis (log2)” value (HeLa Kyoto [3])?
A: -0.0672

Q: And the thermal stability score (HeLa Kyoto [4]; [5])?
A: 1.32

Q: And the thermal stability score (HeLa Kyoto [4]; cell cycle stage: mitosis)?
A: -3.51

Q: With NDRG1 as the substance, how does the “solubility in G1/S (log2)” value (HeLa Kyoto [1]) read?
A: 0.246

Q: What about the melting temperature (HeLa Kyoto [2]; cell cycle stage: G1/S) of the same substance?
A: 53.1 °C

Q: And the melting temperature (HeLa Kyoto [2]; cell cycle stage: mitosis)?
A: 53.6 °C

Q: What about the “solubility change mitosis (log2)” value (HeLa Kyoto [3]) of the same substance?
A: 0.00645

Q: And the thermal stability score (HeLa Kyoto [4]; [5])?
A: 1.68

Q: And the thermal stability score (HeLa Kyoto [4]; cell cycle stage: mitosis)?
A: -0.0804

Q: Which results are given for “MERASERRTASALFAGFRALGLFSNDIPHVVRFSALKRRFYVTTCVGKSFHTYDVQKLSLVAVSNSVPQDICCMAADGRLVFAAYGNVFSAFARNKEIVHTFKGHKAEIHFLQPFGDHIISVDTDGILIIWHIYSEEEYLQLTFDKSVFKISAILHPSTYLNKILLGSEQGSLQLWNVKSNKLLYTFPGWKVGVTALQQAPAVDVVAIGLMSGQVIIHNIKFNETLMKFRQDWGPITSISFRTDGHPVMAAGSPCGHIGLWDLEDKKLINQMRNAHSTAIAGLTFLHREPLLVTNGADNALRIWIFDGPTGEGRLLRFRMGHSAPLTNIRYYGQNGQQILSASQDGTLQSFSTVHEKFNKSLGHGLINKKRVKRKGLQNTMSVRLPPITKFAAEEARESDWDGIIACHQGKLSCSTWNYQKSTIGAYFLKPKELKKDDITATAVDITSCGNFAVIGLSSGTVDVYNMQSGIHRGSFGKDQAHKGSVRGVAVDGLNQLTVTTGSEGLLKFWNFKNKILIHSVSLSSSPNIMLLHRDSGILGLALDDFSISVLDIETRKIVREFSGHQGQINDMAFSPDGRWLISAAMDCSIRTWDLPSGCLIDCFLLDSAPLNVSMSPTGDFLATSHVDHLGIYLWSNISLYSVVSLRPLPADYVPSIVMLPGTCQTQDVEVSEETVEPSDELIEYDSPEQLNEQLVTLSLLPESRWKNLLNLDVIKKKNKPKEPPKVPKSAPFFIPTIPGLVPRYAAPEQNNDPQQSKVVNLGVLAQKSDFCLKLEEGLVNNKYDTALNLLKESGPSGIETELRSLSPDCGGSIEVMQSFLKMIGMMLDRKRDFELAQAYLALFLKLHLKMLPSEPVLLEEITNLSSQVEENWTHLQSLFNQSMCILNYLKSALL [WDR36]”?
A: solubility in G1/S (log2) (HeLa Kyoto [1]): -1.46; melting temperature (HeLa Kyoto [2]; cell cycle stage: G1/S): 50.5 °C; melting temperature (HeLa Kyoto [2]; cell cycle stage: mitosis): 50.8 °C; solubility change mitosis (log2) (HeLa Kyoto [3]): 0.613; thermal stability score (HeLa Kyoto [4]; [5]): 0.383; thermal stability score (HeLa Kyoto [4]; cell cycle stage: mitosis): 0.754

Q: What does the source list for “MGRRRAPAGGSLGRALMRHQTQRSRSHRHTDSWLHTSELNDGYDWGRLNLQSVTEQSSLDDFLATAELAGTEFVAEKLNIKFVPAEARTGLLSFEESQRIKKLHEENKQFLCIPRRPNWNQNTTPEELKQAEKDNFLEWRRQLVRLEEEQKLILTPFERNLDFWRQLWRVIERSDIVVQIVDARNPLLFRCEDLECYVKEMDANKENVILINKADLLTAEQRSAWAMYFEKEDVKVIFWSALAGAIPLNGDSEEEANRDDRQSNTTKFGHSSFDQAEISHSESEHLPARDSPSLSENPTTDEDDSEYEDCPEEEEDDWQTCSEEDGPKEEDCSQDWKESSTADSEARSRKTPQKRQIHNFSHLVSKQELLELFKELHTGRKVKDGQLTVGLVGYPNVGKSSTINTIMGNKKVSVSATPGHTKHFQTLYVEPGLCLCDCPGLVMPSFVSTKAEMTCSGILPIDQMRDHVPPVSLVCQNIPRHVLEATYGINIITPREDEDPHRPPTSEELLTAYGYMRGFMTAHGQPDQPRSARYILKDYVSGKLLYCHPPPGRDPVTFQHQHQRLLENKMNSDEIKMQLGRNKKAKQIENIVDKTFFHQENVRALTKGVQAVMGYKPGSGVVTASTASSENGAGKPWKKHGNRNKKEKSRRLYKHLDM [LSG1]”?
A: solubility in G1/S (log2) (HeLa Kyoto [1]): -0.366; melting temperature (HeLa Kyoto [2]; cell cycle stage: G1/S): 49 °C; melting temperature (HeLa Kyoto [2]; cell cycle stage: mitosis): 49 °C; solubility change mitosis (log2) (HeLa Kyoto [3]): 0.0936; thermal stability score (HeLa Kyoto [4]; [5]): 0.926; thermal stability score (HeLa Kyoto [4]; cell cycle stage: mitosis): 1.89

Q: With “MASSCAVQVKLELGHRAQVRKKPTVEGFTHDWMVFVRGPEHSNIQHFVEKVVFHLHESFPRPKRVCKDPPYKVEESGYAGFILPIEVYFKNKEEPRKVRFDYDLFLHLEGHPPVNHLRCEKLTFNNPTEDFRRKLLKAGGDPNRSIHTSSSSSSSSSSSSSSSSSSSSSSSSSSSSSSSSSSSSSSSSSSTSFSKPHKLMKEHKEKPSKDSREHKSAFKEPSRDHNKSSKESSKKPKENKPLKEEKIVPKMAFKEPKPMSKEPKPDSNLLTITSGQDKKAPSKRPPISDSEELSAKKRKKSSSEALFKSFSSAPPLILTCSADKKQIKDKSHVKMGKVKIESETSEKKKSTLPPFDDIVDPNDSDVEENISSKSDSEQPSPASSSSSSSSSFTPSQTRQQGPLRSIMKDLHSDDNEEESDEVEDNDNDSEMERPVNRGGSRSRRVSLSDGSDSESSSASSPLHHEPPPPLLKTNNNQILEVKSPIKQSKSDKQIKNGECDKAYLDELVELHRRLMTLRERHILQQIVNLIEETGHFHITNTTFDFDLCSLDKTTVRKLQSYLETSGTS [MLLT3]” as the substance, how does the “solubility in G1/S (log2)” value (HeLa Kyoto [1]) read?
A: -0.355

Q: What about the melting temperature (HeLa Kyoto [2]; cell cycle stage: G1/S) of the same substance?
A: 48.5 °C

Q: What about the melting temperature (HeLa Kyoto [2]; cell cycle stage: mitosis) of the same substance?
A: 50.5 °C

Q: What about the “solubility change mitosis (log2)” value (HeLa Kyoto [3]) of the same substance?
A: 0.411

Q: What about the thermal stability score (HeLa Kyoto [4]; [5]) of the same substance?
A: -0.0552

Q: And the thermal stability score (HeLa Kyoto [4]; cell cycle stage: mitosis)?
A: 0.557

Q: For “MQTPEVPAERSPRRRSISGTSTSEKPNSMDTANTSPFKVPGFFSKRLKGSIKRTKSQSKLDRNTSFRLPSLRSTDDRSRGLPKLKESRSHESLLSPCSTVECLDLGRGEPVSVKPLHSSILGQDFCFEVTYLSGSKCFSCNSASERDKWMENLRRTVQPNKDNCRRAENVLRLWIIEAKDLAPKKKYFCELCLDDTLFARTTSKTKADNIFWGEHFEFFSLPPLHSITVHIYKDVEKKKKKDKNNYVGLVNIPTASVTGRQFVEKWYPVSTPTPNKGKTGGPSIRIKSRFQTITILPMEQYKEFAEFVTSNYTMLCSVLEPVISVRNKEELACALVHILQSTGRAKDFLTDLVMSEVDRCGEHDVLIFRENTIATKSIEEYLKLVGQQYLHDALGEFIKALYESDENCEVDPSKCSSSELIDHQSNLKMCCELAFCKIINSYCVFPRELKEVFASWKQQCLNRGKQDISERLISASLFLRFLCPAIMSPSLFNLMQEYPDDRTSRTLTLIAKVIQNLANFAKFGNKEEYMAFMNDFLEHEWGGMKRFLLEISNPDTISNTPGFDGYIDLGRELSVLHSLLWEVVSQLDKGENSFLQATVAKLGPLPRVLADITKSLTNPTPIQQQLRRFTEHNSSPNVSGSLSSGLQKIFEDPTDSDLHKLKSPSQDNTDSYFRGKTLLLVQQASSQSMTYSEKDERESSLPNGRSVSLMDLQDTHAAQVEHASVMLDVPIRLTGSQLSITQVASIKQLRETQSTPQSAPQVRRPLHPALNQPGGLQPLSFQNPVYHLNNPIPAMPKASIDSSLENLSTASSRSQSNSEDFKLSGPSNSSMEDFTKRSTQSEDFSRRHTVPDRHIPLALPRQNSTGQAQIRKVDQGGLGARAKAPPSLPHSASLRSTGSMSVVSAALVAEPVQNGSRSRQQSSSSRESPVPKVRAIQRQQTQQVQSPVDSATMSPVERTAAWVLNNGQYEEDVEETEQNLDEAKHAEKYEQEITKLKERLRVSSRRLEEYERRLLVQEQQMQKLLLEYKARLEDSEERLRRQQEEKDSQMKSIISRLMAVEEELKKDHAEMQAVIDAKQKIIDAQEKRIVSLDSANTRLMSALTQVKERYSMQVRNGISPTNPTKLSITENGEFKNSSC [RASAL2]”, which “solubility in G1/S (log2)” value (HeLa Kyoto [1]) is on record?
A: 0.0337

Q: And the melting temperature (HeLa Kyoto [2]; cell cycle stage: G1/S)?
A: 49 °C

Q: What about the melting temperature (HeLa Kyoto [2]; cell cycle stage: mitosis) of the same substance?
A: 49.4 °C

Q: And the “solubility change mitosis (log2)” value (HeLa Kyoto [3])?
A: -0.0989

Q: And the thermal stability score (HeLa Kyoto [4]; [5])?
A: 1.04

Q: What about the thermal stability score (HeLa Kyoto [4]; cell cycle stage: mitosis) of the same substance?
A: 2.25
